Laboratory results: publication doi:10.1101/2025.01.07.631770, “Backbone and Sidechain ^1H, ^15N and ^13C Resonance Assignments of a Multidrug Efflux Membrane Protein using Solution and Solid-State NMR” (bioRxiv, 2025)

Target: the molecule itself
Experiment: solid-state NMR (13C-detected MAS, 2D NCA; two sets of peaks); S64V-EmrE in POPC proteoliposomes, 25:1 lipid/EmrE monomer, pH 5.8; 1.1 GHz, MAS 25 kHz, sample temperature 10 ± 5 °C

B1: S64V-EmrE (natural protein, E. coli, UniProt P23895 1-110, looked up)
chain: MNPYIYLGGAILAEVIGTTLMKFSEGFTRLWPSVGTIICYCASFWLLAQTLAYIPTGIAYAIWVGVGIVLISLLSWGFFGQRLDLPAIIGMMLICAGVLIINLLSRSTPH
notes: also called EmrE mutant S64V
  binding result: binds
